Target: Xatr-XatripΔN222-FLAG complex (Xenopus laevis)
Experiment: cell-based or functional assay

Xatr-XatripΔN222-FLAG complex (Xenopus laevis), sequence (Q5EGL8 whole entry, stated change not applied, one chain of several): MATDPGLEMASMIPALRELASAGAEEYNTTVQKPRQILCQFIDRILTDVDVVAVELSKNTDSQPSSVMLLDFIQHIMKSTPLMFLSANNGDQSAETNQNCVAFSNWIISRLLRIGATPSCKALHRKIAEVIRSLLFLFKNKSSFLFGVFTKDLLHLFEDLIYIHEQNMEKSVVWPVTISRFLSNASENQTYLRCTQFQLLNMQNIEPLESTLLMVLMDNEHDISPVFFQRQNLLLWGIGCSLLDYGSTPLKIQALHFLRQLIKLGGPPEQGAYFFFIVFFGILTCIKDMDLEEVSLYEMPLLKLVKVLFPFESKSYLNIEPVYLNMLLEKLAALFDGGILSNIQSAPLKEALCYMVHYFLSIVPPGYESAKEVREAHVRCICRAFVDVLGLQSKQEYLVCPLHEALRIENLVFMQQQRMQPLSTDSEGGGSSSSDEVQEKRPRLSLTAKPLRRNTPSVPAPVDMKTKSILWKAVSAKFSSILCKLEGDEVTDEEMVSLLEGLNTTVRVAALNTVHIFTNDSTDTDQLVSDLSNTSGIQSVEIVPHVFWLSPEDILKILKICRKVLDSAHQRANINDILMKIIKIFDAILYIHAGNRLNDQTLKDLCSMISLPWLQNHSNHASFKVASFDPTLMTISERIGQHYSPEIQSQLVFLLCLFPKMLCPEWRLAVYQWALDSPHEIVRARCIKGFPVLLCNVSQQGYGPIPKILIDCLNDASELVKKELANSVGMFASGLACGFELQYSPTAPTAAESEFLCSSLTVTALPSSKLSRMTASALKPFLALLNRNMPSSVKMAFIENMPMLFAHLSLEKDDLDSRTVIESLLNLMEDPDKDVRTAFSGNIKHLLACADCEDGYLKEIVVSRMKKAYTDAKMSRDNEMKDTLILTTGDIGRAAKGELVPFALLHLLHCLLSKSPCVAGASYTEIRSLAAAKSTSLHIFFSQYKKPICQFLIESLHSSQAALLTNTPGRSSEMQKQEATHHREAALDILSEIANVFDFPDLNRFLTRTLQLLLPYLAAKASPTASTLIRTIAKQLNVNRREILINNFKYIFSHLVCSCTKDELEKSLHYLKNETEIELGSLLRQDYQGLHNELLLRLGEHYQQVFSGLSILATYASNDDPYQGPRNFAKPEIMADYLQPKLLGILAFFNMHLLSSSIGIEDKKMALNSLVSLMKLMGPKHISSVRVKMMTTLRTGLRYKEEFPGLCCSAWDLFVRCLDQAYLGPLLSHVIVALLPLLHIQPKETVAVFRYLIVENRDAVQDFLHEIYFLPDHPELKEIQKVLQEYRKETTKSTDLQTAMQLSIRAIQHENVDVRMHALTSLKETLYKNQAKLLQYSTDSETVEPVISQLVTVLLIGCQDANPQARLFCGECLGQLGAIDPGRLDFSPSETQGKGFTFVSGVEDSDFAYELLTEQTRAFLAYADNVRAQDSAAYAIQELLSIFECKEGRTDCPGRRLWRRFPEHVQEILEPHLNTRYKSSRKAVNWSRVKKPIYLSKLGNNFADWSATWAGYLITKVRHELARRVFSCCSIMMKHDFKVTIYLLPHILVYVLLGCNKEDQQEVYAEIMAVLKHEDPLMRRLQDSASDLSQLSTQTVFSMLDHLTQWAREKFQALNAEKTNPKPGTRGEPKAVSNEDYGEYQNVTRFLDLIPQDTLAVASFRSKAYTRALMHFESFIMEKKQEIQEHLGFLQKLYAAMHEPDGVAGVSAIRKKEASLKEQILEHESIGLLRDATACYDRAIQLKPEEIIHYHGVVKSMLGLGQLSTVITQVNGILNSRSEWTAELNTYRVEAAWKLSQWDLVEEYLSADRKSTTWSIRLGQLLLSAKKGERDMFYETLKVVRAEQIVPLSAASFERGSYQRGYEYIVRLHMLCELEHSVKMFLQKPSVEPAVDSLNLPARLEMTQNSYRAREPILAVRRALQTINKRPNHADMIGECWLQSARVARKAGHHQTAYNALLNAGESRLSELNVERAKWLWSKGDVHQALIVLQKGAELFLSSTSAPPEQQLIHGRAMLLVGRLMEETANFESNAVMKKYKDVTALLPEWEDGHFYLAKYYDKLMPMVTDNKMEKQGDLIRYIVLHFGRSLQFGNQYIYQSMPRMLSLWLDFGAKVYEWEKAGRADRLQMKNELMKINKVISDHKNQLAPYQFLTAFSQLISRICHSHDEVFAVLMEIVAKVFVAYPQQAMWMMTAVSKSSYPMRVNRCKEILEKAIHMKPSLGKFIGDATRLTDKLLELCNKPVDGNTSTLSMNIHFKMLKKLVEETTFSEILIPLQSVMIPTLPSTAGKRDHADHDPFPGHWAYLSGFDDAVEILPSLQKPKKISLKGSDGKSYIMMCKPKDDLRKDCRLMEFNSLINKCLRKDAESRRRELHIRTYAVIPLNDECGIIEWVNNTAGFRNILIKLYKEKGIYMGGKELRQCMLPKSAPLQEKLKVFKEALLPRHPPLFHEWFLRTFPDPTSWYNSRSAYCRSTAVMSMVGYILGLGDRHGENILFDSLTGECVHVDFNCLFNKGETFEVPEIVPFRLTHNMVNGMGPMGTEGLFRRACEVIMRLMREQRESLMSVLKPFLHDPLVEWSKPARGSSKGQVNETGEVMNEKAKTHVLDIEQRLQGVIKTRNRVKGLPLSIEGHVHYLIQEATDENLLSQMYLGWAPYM

half-maximal induction of kinase activity: 10 to 15 µg/mL
Substance: His6-XtopBP1 (full-length) (from UniProt Q800K6 1-1513)

Source: US20090098111A1
